From article PMC7447434, “Atomic structure of a mitochondrial complex I intermediate from vascular plants” (eLife, 2020) come the findings set out here.

Sequences and labels used below:
B1: CA1 (natural protein, Vigna radiata, UniProt A0A1S3VT00 1-270, looked up)
chain: MGTLGRAFYAVGFWIRETGQAIDRLGSRLQGNYLFQEQLSRHRPLMNLFDKYPSVHKDAFVAPSASLLGDVHVGPASSIWYGCVLRGDVNGIVIGSGTNIQDNSLVHVAKSNLTGKVLPTIIGDNVTVGHSAVLQGCTVEDEAFIGMGATLLDGVYVEKHAMVAAGALVRQNTRIPYGEVWGGNPAKFLRKLTEDEMAFFSQSALNYSNLAQAHAAENAKELEETEFVKVLHKKFAPRGEEYDSILDGGQETPAKLNLQDNVLLDKAPKA
notes: CA1, gamma-carbonic-anhydrase domain subunit of Vigna radiata mitochondrial complex I; 270 residues; residues 3-222 modelled, 223-233 as poly-Ala; also called carbonic-anhydrase-1 subunit; Gamma-CA 1 (A. thaliana name)

Assay in all cases: cryo-EM structure; CI* (~800 kDa assembly intermediate) from V. radiata mitochondrial membranes, digitonin-extracted, amphipol A8-35-stabilised, sucrose gradient; 6 mg/ml in 20 mM HEPES, 150 mM NaCl, 1 mM EDTA, 0.1% digitonin, pH 7.8; nominal resolution 3.9 Å; interfaces of the γCA domain listed from the model with PDBePISA
Holding throughout (conditions): both partners purified

Assay [1] concerns the target T1, NU2M (Vigna radiata, UniProt E9KZK9 1-488, S19F | S103F | S104F | P119L | P121S | R123C | H132Y | P143L | S166LL | S221F | …).
T1 construct: NU2M, mitochondrially encoded core PP-module subunit of Vigna radiata complex I; 488 residues; residues 1-487 modelled; 14 TMH; the substitutions are RNA editing sites against the entry, made in the model where the density fitted the edited residue; RNA edits are natural; 'S166LL' is printed so and was read as S166L; also called Nad2 (A. thaliana name)
T1 sequence (looked up): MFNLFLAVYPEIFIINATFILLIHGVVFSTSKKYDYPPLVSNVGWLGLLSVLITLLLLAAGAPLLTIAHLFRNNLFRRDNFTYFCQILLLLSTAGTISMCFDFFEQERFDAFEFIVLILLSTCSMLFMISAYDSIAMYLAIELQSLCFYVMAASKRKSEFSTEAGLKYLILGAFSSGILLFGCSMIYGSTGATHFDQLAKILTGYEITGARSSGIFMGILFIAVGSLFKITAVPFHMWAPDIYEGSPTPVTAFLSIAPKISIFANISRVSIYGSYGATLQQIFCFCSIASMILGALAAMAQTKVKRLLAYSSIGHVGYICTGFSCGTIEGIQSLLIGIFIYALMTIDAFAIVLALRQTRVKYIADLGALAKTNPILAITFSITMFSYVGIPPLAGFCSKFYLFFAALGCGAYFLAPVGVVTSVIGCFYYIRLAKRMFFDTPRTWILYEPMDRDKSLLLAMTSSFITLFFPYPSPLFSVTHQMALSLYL

The target of assay [2] is T1, NU2M. The source holds these as a separate data set.
The assay “CA1” has as its target B1.

On to B1, for which the binding result with NU2M [1] is given as “binds”.

B2: NDUC2 (natural protein, Vigna radiata, UniProt A0A1S3UPL8 1-81, looked up)
chain: MVLSATTIGALLGLGTQMYSNALRKLPYMRHPWEHVVGMGLGAVFVNQLLKWEAQVEQDLDKMLEKAKAANERRYIDGDDD
notes: NDUC2, membrane arm accessory subunit of Vigna radiata mitochondrial complex I; 81 residues; residues 5-68 modelled; 2 TMH; also called B14.5b (A. thaliana name)
On to B2, for which the binding result in the assay with NU2M [2] and in the assay with CA1 was “binds” throughout.

B3: NDUX1 (natural protein, Vigna radiata, UniProt A0A1S3VI15 1-101, looked up)
chain: MNTDITASTKPEYPVVDRNPPFTKVVGNFSTLDYLRFVTITGVSVTVGYLSGIKPGIRGPSMVTGGLIGVMGGFMYAYQNSAGRLMGFFPNDDEVARHNKK
notes: NDUX1, PP-module accessory subunit of Vigna radiata mitochondrial complex I, named here after Y. lipolytica NUXM; 101 residues; residues 1-100 modelled; 2 TMH; also called homologue of Y. lipolytica NUXM; 20.9 kDa (A. thaliana name)
As to B3, the binding result with NU2M [2] and with CA1 was “binds” throughout.
